Square brackets hold non-standard residues; d marks the D form. Aib = CC(C)(N)C(=O)O
How the values were obtained:
[1] = target: human glucagon-like peptide 1 receptor (GLP-1R) (human, UniProt P43220 24-463); experiment: cell-based or functional assay
[2] = target: T1, human GLP-2 receptor (hGLP2-R) (human, UniProt O95838 1-553); experiment: cell-based or functional assay
T1 sequence (looked up): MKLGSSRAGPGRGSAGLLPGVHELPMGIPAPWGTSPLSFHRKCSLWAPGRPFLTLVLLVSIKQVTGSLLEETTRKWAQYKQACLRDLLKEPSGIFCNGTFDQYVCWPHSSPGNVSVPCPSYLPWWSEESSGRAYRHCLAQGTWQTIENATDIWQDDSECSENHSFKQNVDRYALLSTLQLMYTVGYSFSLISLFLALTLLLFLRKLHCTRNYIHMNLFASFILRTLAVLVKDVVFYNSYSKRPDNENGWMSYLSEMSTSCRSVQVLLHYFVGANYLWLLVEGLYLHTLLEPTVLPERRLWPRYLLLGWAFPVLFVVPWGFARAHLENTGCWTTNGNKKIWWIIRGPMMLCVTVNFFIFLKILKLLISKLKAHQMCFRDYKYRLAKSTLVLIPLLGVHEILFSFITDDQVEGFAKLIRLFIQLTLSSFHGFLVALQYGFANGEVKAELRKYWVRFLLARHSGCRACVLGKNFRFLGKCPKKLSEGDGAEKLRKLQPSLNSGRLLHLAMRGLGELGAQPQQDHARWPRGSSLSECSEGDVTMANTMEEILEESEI

B1: Compound 6 (peptide)
peptide: H-H[Aib]EGSFTSELATILDEQAARDFIAWLIHHKITD-OH
SMILES: CC[C@H](C)[C@H](NC(=O)[C@H](Cc1ccccc1)NC(=O)[C@H](CC(=O)O)NC(=O)[C@H](CCCNC(=N)N)NC(=O)[C@H](C)NC(=O)[C@H](C)NC(=O)[C@H](CCC(N)=O)NC(=O)[C@H](CCC(=O)O)NC(=O)[C@H](CC(=O)O)NC(=O)[C@H](CC(C)C)NC(=O)[C@@H](NC(=O)[C@@H](NC(=O)[C@H](C)NC(=O)[C@H](CC(C)C)NC(=O)[C@H](CCC(=O)O)NC(=O)[C@H](CO)NC(=O)[C@@H](NC(=O)[C@H](Cc1ccccc1)NC(=O)[C@H](CO)NC(=O)CNC(=O)[C@H](CCC(=O)O)NC(=O)C(C)(C)NC(=O)[C@@H](N)Cc1c[nH]cn1)[C@@H](C)O)[C@@H](C)O)[C@@H](C)CC)C(=O)N[C@@H](C)C(=O)N[C@@H](Cc1c[nH]c2ccccc12)C(=O)N[C@@H](CC(C)C)C(=O)N[C@H](C(=O)N[C@@H](Cc1c[nH]cn1)C(=O)N[C@@H](Cc1c[nH]cn1)C(=O)N[C@@H](CCCCN)C(=O)N[C@H](C(=O)N[C@H](C(=O)N[C@@H](CC(=O)O)C(=O)O)[C@@H](C)O)[C@@H](C)CC)[C@@H](C)CC
EC50 GLP-1 (nM); cAMP AlphaScreen, HEK293 cells expressing human GLP-1R [1]: 0.014 nM | EC50 GLP-2 (nM); cAMP AlphaScreen, HEK293 cells expressing human GLP-2R [2]: 0.047 nM

B2: Compound 3 (peptide)
peptide: H-H[Aib]EGTFTSELATILDEQAARDFIAWLIAHKITD-OH
SMILES: CC[C@H](C)[C@H](NC(=O)[C@H](CC(C)C)NC(=O)[C@H](Cc1c[nH]c2ccccc12)NC(=O)[C@H](C)NC(=O)[C@@H](NC(=O)[C@H](Cc1ccccc1)NC(=O)[C@H](CC(=O)O)NC(=O)[C@H](CCCNC(=N)N)NC(=O)[C@H](C)NC(=O)[C@H](C)NC(=O)[C@H](CCC(N)=O)NC(=O)[C@H](CCC(=O)O)NC(=O)[C@H](CC(=O)O)NC(=O)[C@H](CC(C)C)NC(=O)[C@@H](NC(=O)[C@@H](NC(=O)[C@H](C)NC(=O)[C@H](CC(C)C)NC(=O)[C@H](CCC(=O)O)NC(=O)[C@H](CO)NC(=O)[C@@H](NC(=O)[C@H](Cc1ccccc1)NC(=O)[C@@H](NC(=O)CNC(=O)[C@H](CCC(=O)O)NC(=O)C(C)(C)NC(=O)[C@@H](N)Cc1c[nH]cn1)[C@@H](C)O)[C@@H](C)O)[C@@H](C)O)[C@@H](C)CC)[C@@H](C)CC)C(=O)N[C@@H](C)C(=O)N[C@@H](Cc1c[nH]cn1)C(=O)N[C@@H](CCCCN)C(=O)N[C@H](C(=O)N[C@H](C(=O)N[C@@H](CC(=O)O)C(=O)O)[C@@H](C)O)[C@@H](C)CC
EC50 GLP-1 (nM); cAMP AlphaScreen, HEK293 cells expressing human GLP-1R [1]: 0.0074 nM | EC50 GLP-2 (nM); cAMP AlphaScreen, HEK293 cells expressing human GLP-2R [2]: 0.036 nM

B3: Teduglutide (peptide)
peptide: HGDGSFSDEMNTILDNLAARDFINWLIQTKITD
EC50 GLP-1 (nM); cAMP AlphaScreen, HEK293 cells expressing human GLP-1R [1]: 39 nM

B4: Compound 5 (peptide)
peptide: H-H[Aib]EGTFTSELATILDEQAARDFIAWLIEHKITD-OH
SMILES: CC[C@H](C)[C@H](NC(=O)[C@H](Cc1ccccc1)NC(=O)[C@H](CC(=O)O)NC(=O)[C@H](CCCNC(=N)N)NC(=O)[C@H](C)NC(=O)[C@H](C)NC(=O)[C@H](CCC(N)=O)NC(=O)[C@H](CCC(=O)O)NC(=O)[C@H](CC(=O)O)NC(=O)[C@H](CC(C)C)NC(=O)[C@@H](NC(=O)[C@@H](NC(=O)[C@H](C)NC(=O)[C@H](CC(C)C)NC(=O)[C@H](CCC(=O)O)NC(=O)[C@H](CO)NC(=O)[C@@H](NC(=O)[C@H](Cc1ccccc1)NC(=O)[C@@H](NC(=O)CNC(=O)[C@H](CCC(=O)O)NC(=O)C(C)(C)NC(=O)[C@@H](N)Cc1c[nH]cn1)[C@@H](C)O)[C@@H](C)O)[C@@H](C)O)[C@@H](C)CC)C(=O)N[C@@H](C)C(=O)N[C@@H](Cc1c[nH]c2ccccc12)C(=O)N[C@@H](CC(C)C)C(=O)N[C@H](C(=O)N[C@@H](CCC(=O)O)C(=O)N[C@@H](Cc1c[nH]cn1)C(=O)N[C@@H](CCCCN)C(=O)N[C@H](C(=O)N[C@H](C(=O)N[C@@H](CC(=O)O)C(=O)O)[C@@H](C)O)[C@@H](C)CC)[C@@H](C)CC
EC50 GLP-1 (nM); cAMP AlphaScreen, HEK293 cells expressing human GLP-1R [1]: 0.0098 nM | EC50 GLP-2 (nM); cAMP AlphaScreen, HEK293 cells expressing human GLP-2R [2]: 0.067 nM

B5: Compound 4 (peptide)
peptide: H-H[Aib]EGSFTSELATILDEQAARDFIAWLIEHKITD-OH
SMILES: CC[C@H](C)[C@H](NC(=O)[C@H](Cc1ccccc1)NC(=O)[C@H](CC(=O)O)NC(=O)[C@H](CCCNC(=N)N)NC(=O)[C@H](C)NC(=O)[C@H](C)NC(=O)[C@H](CCC(N)=O)NC(=O)[C@H](CCC(=O)O)NC(=O)[C@H](CC(=O)O)NC(=O)[C@H](CC(C)C)NC(=O)[C@@H](NC(=O)[C@@H](NC(=O)[C@H](C)NC(=O)[C@H](CC(C)C)NC(=O)[C@H](CCC(=O)O)NC(=O)[C@H](CO)NC(=O)[C@@H](NC(=O)[C@H](Cc1ccccc1)NC(=O)[C@H](CO)NC(=O)CNC(=O)[C@H](CCC(=O)O)NC(=O)C(C)(C)NC(=O)[C@@H](N)Cc1c[nH]cn1)[C@@H](C)O)[C@@H](C)O)[C@@H](C)CC)C(=O)N[C@@H](C)C(=O)N[C@@H](Cc1c[nH]c2ccccc12)C(=O)N[C@@H](CC(C)C)C(=O)N[C@H](C(=O)N[C@@H](CCC(=O)O)C(=O)N[C@@H](Cc1c[nH]cn1)C(=O)N[C@@H](CCCCN)C(=O)N[C@H](C(=O)N[C@H](C(=O)N[C@@H](CC(=O)O)C(=O)O)[C@@H](C)O)[C@@H](C)CC)[C@@H](C)CC
EC50 GLP-1 (nM); cAMP AlphaScreen, HEK293 cells expressing human GLP-1R [1]: 0.015 nM | EC50 GLP-2 (nM); cAMP AlphaScreen, HEK293 cells expressing human GLP-2R [2]: 0.044 nM

B6: Compound 8 (peptide)
peptide: H-H[Aib]EGSFTSELATILDEQAARDFIAWLILHKITD-OH
SMILES: CC[C@H](C)[C@H](NC(=O)[C@H](Cc1ccccc1)NC(=O)[C@H](CC(=O)O)NC(=O)[C@H](CCCNC(=N)N)NC(=O)[C@H](C)NC(=O)[C@H](C)NC(=O)[C@H](CCC(N)=O)NC(=O)[C@H](CCC(=O)O)NC(=O)[C@H](CC(=O)O)NC(=O)[C@H](CC(C)C)NC(=O)[C@@H](NC(=O)[C@@H](NC(=O)[C@H](C)NC(=O)[C@H](CC(C)C)NC(=O)[C@H](CCC(=O)O)NC(=O)[C@H](CO)NC(=O)[C@@H](NC(=O)[C@H](Cc1ccccc1)NC(=O)[C@H](CO)NC(=O)CNC(=O)[C@H](CCC(=O)O)NC(=O)C(C)(C)NC(=O)[C@@H](N)Cc1c[nH]cn1)[C@@H](C)O)[C@@H](C)O)[C@@H](C)CC)C(=O)N[C@@H](C)C(=O)N[C@@H](Cc1c[nH]c2ccccc12)C(=O)N[C@@H](CC(C)C)C(=O)N[C@H](C(=O)N[C@@H](CC(C)C)C(=O)N[C@@H](Cc1c[nH]cn1)C(=O)N[C@@H](CCCCN)C(=O)N[C@H](C(=O)N[C@H](C(=O)N[C@@H](CC(=O)O)C(=O)O)[C@@H](C)O)[C@@H](C)CC)[C@@H](C)CC
EC50 GLP-1 (nM); cAMP AlphaScreen, HEK293 cells expressing human GLP-1R [1]: 0.021 nM | EC50 GLP-2 (nM); cAMP AlphaScreen, HEK293 cells expressing human GLP-2R [2]: 0.084 nM

B7: Compound 7 (peptide)
peptide: H-H[Aib]EGSFTSELATILDEQAARDFIAWLIYHKITD-OH
SMILES: CC[C@H](C)[C@H](NC(=O)[C@H](Cc1ccccc1)NC(=O)[C@H](CC(=O)O)NC(=O)[C@H](CCCNC(=N)N)NC(=O)[C@H](C)NC(=O)[C@H](C)NC(=O)[C@H](CCC(N)=O)NC(=O)[C@H](CCC(=O)O)NC(=O)[C@H](CC(=O)O)NC(=O)[C@H](CC(C)C)NC(=O)[C@@H](NC(=O)[C@@H](NC(=O)[C@H](C)NC(=O)[C@H](CC(C)C)NC(=O)[C@H](CCC(=O)O)NC(=O)[C@H](CO)NC(=O)[C@@H](NC(=O)[C@H](Cc1ccccc1)NC(=O)[C@H](CO)NC(=O)CNC(=O)[C@H](CCC(=O)O)NC(=O)C(C)(C)NC(=O)[C@@H](N)Cc1c[nH]cn1)[C@@H](C)O)[C@@H](C)O)[C@@H](C)CC)C(=O)N[C@@H](C)C(=O)N[C@@H](Cc1c[nH]c2ccccc12)C(=O)N[C@@H](CC(C)C)C(=O)N[C@H](C(=O)N[C@@H](Cc1ccc(O)cc1)C(=O)N[C@@H](Cc1c[nH]cn1)C(=O)N[C@@H](CCCCN)C(=O)N[C@H](C(=O)N[C@H](C(=O)N[C@@H](CC(=O)O)C(=O)O)[C@@H](C)O)[C@@H](C)CC)[C@@H](C)CC
EC50 GLP-1 (nM); cAMP AlphaScreen, HEK293 cells expressing human GLP-1R [1]: 0.017 nM | EC50 GLP-2 (nM); cAMP AlphaScreen, HEK293 cells expressing human GLP-2R [2]: 0.11 nM

B8: Compound 9 (peptide)
peptide: H-H[Aib]EGTFTDELATILDEQAARDFIAWLIAHKITD-OH
SMILES: CC[C@H](C)[C@H](NC(=O)[C@H](CC(C)C)NC(=O)[C@H](Cc1c[nH]c2ccccc12)NC(=O)[C@H](C)NC(=O)[C@@H](NC(=O)[C@H](Cc1ccccc1)NC(=O)[C@H](CC(=O)O)NC(=O)[C@H](CCCNC(=N)N)NC(=O)[C@H](C)NC(=O)[C@H](C)NC(=O)[C@H](CCC(N)=O)NC(=O)[C@H](CCC(=O)O)NC(=O)[C@H](CC(=O)O)NC(=O)[C@H](CC(C)C)NC(=O)[C@@H](NC(=O)[C@@H](NC(=O)[C@H](C)NC(=O)[C@H](CC(C)C)NC(=O)[C@H](CCC(=O)O)NC(=O)[C@H](CC(=O)O)NC(=O)[C@@H](NC(=O)[C@H](Cc1ccccc1)NC(=O)[C@@H](NC(=O)CNC(=O)[C@H](CCC(=O)O)NC(=O)C(C)(C)NC(=O)[C@@H](N)Cc1c[nH]cn1)[C@@H](C)O)[C@@H](C)O)[C@@H](C)O)[C@@H](C)CC)[C@@H](C)CC)C(=O)N[C@@H](C)C(=O)N[C@@H](Cc1c[nH]cn1)C(=O)N[C@@H](CCCCN)C(=O)N[C@H](C(=O)N[C@H](C(=O)N[C@@H](CC(=O)O)C(=O)O)[C@@H](C)O)[C@@H](C)CC
EC50 GLP-1 (nM); cAMP AlphaScreen, HEK293 cells expressing human GLP-1R [1]: 0.007 nM | EC50 GLP-2 (nM); cAMP AlphaScreen, HEK293 cells expressing human GLP-2R [2]: 0.041 nM
